In test [1] the target is microtubules (paclitaxel-stabilized, polymerized from tubulin). Description: optical tweezers unbinding-force assay (constant-pulling); motor held by its GFP on anti-GFP Fab-coated ~1-μm beads in an optical trap, MTs immobilized on the coverslip (biotin-streptavidin) and swept past the bead; single-molecule level; no nucleotide (apo, residual ATP 37.5 nM); non-reducing conditions; 30 mM HEPES, 2 mM MgAc2, 1 mM EGTA, 20 μM paclitaxel, pH 7.2; theoretical loading rate 5.6 pN/s; primary unbinding events only.
Target sequence in this assay (P02550 whole entry, chain 1 of 2): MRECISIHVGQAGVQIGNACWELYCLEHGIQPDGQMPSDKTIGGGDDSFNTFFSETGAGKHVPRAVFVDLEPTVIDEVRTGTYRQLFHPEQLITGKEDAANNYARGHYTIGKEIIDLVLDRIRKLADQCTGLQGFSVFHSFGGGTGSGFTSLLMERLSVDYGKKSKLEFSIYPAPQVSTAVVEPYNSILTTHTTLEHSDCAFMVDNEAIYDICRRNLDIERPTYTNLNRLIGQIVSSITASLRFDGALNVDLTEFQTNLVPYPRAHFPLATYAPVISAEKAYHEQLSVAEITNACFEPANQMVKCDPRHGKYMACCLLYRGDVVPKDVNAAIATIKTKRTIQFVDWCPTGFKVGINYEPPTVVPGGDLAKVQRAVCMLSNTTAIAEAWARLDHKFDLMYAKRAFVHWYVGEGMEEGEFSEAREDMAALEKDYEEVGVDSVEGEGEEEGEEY
Target sequence in this assay (P02554 whole entry, chain 2 of 2, further chain): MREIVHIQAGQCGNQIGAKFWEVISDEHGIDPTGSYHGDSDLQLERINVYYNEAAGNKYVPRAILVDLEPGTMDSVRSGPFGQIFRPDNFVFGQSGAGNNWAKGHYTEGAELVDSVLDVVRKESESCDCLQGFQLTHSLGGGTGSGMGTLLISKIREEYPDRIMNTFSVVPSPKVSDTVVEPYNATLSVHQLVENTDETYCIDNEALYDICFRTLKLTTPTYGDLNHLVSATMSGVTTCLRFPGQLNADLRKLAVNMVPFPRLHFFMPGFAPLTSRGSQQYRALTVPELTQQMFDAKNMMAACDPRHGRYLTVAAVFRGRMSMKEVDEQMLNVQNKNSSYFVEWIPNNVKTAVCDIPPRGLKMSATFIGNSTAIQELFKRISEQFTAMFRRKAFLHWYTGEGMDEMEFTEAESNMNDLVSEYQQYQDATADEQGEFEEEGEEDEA

For test [2] the target is unchanged. Description: optical tweezers unbinding-force assay (constant-pulling); as a1 but with 1 mM ATP and TCEP (2 mM by the legend) to cleave the disulfide bonds of the stalk helices.
Target sequence in this assay (P02550 whole entry, chain 1 of 2): as the sequence (P02550 whole entry, chain 1 of 2) above
Target sequence in this assay (P02554 whole entry, chain 2 of 2, further chain): as the sequence (P02554 whole entry, chain 2 of 2, further chain) above
For test [3] the target is unchanged. As to the kind of experiment: optical tweezers unbinding-force assay (constant-pulling); as a1 but with 1 mM ATP; non-reducing conditions.
Target sequence in this assay (chain, as listed by the source, chain 1 of 2): as the sequence (P02550 whole entry, chain 1 of 2) above
Target sequence in this assay (chain, as listed by the source, chain 2 of 2): as the sequence (P02554 whole entry, chain 2 of 2, further chain) above
Test [4] shares this target. As to the kind of experiment: single-molecule TIRF dwell-time measurement; zero load; labeled single heads binding to and leaving surface-immobilized Cy5-labeled MTs, 100 ms per frame; apo state (2 U/ml apyrase); 30 mM HEPES, 2 mM MgAc2, 1 mM EGTA, pH 7.2; unbinding rate from an exponential fit of the CDF of dwell times.
Target sequence in this assay (chain, as listed by the source, chain 1 of 2): as the sequence (P02550 whole entry, chain 1 of 2) above
Target sequence in this assay (chain, as listed by the source, chain 2 of 2): as the sequence (P02554 whole entry, chain 2 of 2, further chain) above

In test [1], “Dyn1_(331kDa)-β CL (I3076C, L3247C; stalk helices disulfide cross-linked in the β-registry) (from UniProt P36022 1219-4092) (domain or fragment)” showed a mean unbinding force, backward load of 0.7 pN and a mean unbinding force, forward load of 0.7 pN.
Regarding “AAA1 E/Q Dyn1_(331kDa)-α CL (AAA1 Walker B E/Q; K3077C, A3250C) (from UniProt P36022 1219-4092) (domain or fragment)”, in test [2], the mean unbinding force (both directions) is under 1 pN.
In test [1], “GFP-Dyn1_(331kDa), tail-truncated monomeric S. cerevisiae cytoplasmic dynein motor domain (wild type) (from UniProt P36022 1219-4092) (domain or fragment)” registered a mean unbinding force, forward load of 1.6 pN.
The substance “AAA1 E/Q Dyn1_(331kDa) (E/Q mutation in the AAA1 Walker B motif), P36022 1219-4092” gave a mean unbinding force (both directions) in test [3] of under 1 pN.
In test [1], “Dyn1_(331kDa)-α CL (K3077C, A3250C; stalk helices disulfide cross-linked in the α-registry) (from UniProt P36022 1219-4092) (domain or fragment)” registered a mean unbinding force, forward load of 2.2 pN.
“SNAP-tagged Dyn1_(331kDa)-β CL (β-mutant heads labeled via an inserted N-terminal SNAP-tag), P36022 1219-4092” had an average MT-bound time in test [4] of 290 ms.

The values are drawn from article PMC6659695.
